This test deals with human ErbB-3 (HER3), on cells (human) (UniProt P21860). Briefly: cell-based or functional assay.

The results in this text go back to US20210206875A1, “ERBB-2 TARGETING AGENT AND A BISPECIFIC ANTIBODY WITH ANTIGEN-BINDING SITES THAT BIND AN EPITOPE ON AN EXTRACELLULAR PART OF ERB-2 AND ERBB-3, FOR TREATMENT OF AN INDIVIDUAL WITH AN ERBB-2, ERBB-2/ERBB-3 POSITIVE TUMOUR” (Merus N.V., priority 2017, published 2021).

B1: #Ab6 (antibody, from another filing, IgG1, V domains shown)
VH: EVQLLESGGGLVQPGGSLRLSCAASGFTFSHYVMAWVRQAPGKGLEWVSSISSSGGWTLYADSVKGRFTISRDNSKNTLYLQMNSLRAEDTAVYYCTRGLKMATIFDYWGQGTLVTVSS
VL: QSALTQPASVSGSPGQSITISCTGTSSDVGSYNVVSWYQQHPGKAPKLIIYEVSQRPSGVSNRFSGSKSGNTASLTISGLQTEDEADYYCCSYAGSSIFVIFGGGTKVTVL
Turning to B1, the BxPC3 % Inhibition was -7% and the MCF-7 IC50 (pM), HRG dependent proliferation worked out at 504 pM.
